According to publication PMC12319226 (Frontiers in Bioinformatics, 2025):

Experiments:
Test in all cases: BLI
Settings in all cases: both partners purified
fHbp mutant 0024 = target: T1, fHbp mutant 0024 (Neisseria meningitidis, fHbp v3.28 …, point mutant)
T1 chain: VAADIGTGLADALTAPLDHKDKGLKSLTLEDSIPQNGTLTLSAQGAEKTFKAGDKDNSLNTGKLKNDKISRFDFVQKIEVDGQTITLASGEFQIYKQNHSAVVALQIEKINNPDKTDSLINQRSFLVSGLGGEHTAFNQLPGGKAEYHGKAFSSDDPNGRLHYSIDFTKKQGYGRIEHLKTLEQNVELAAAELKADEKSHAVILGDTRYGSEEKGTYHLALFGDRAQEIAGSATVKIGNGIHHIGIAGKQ

fHbp m002417 = target: T2, fHbp m002417 (Neisseria meningitidis fHbp v3.28, …, chimera)
T2 chain: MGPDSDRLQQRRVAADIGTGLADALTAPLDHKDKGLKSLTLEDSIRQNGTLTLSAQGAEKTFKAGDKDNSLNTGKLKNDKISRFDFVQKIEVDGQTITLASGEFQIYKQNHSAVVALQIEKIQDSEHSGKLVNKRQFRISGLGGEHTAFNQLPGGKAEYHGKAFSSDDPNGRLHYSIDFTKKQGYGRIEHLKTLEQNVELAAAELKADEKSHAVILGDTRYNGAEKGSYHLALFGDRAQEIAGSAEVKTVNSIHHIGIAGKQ

fHbp m001524 = target: T3, fHbp m001524 (Neisseria meningitidis, fHbp …, point mutant)
T3 chain: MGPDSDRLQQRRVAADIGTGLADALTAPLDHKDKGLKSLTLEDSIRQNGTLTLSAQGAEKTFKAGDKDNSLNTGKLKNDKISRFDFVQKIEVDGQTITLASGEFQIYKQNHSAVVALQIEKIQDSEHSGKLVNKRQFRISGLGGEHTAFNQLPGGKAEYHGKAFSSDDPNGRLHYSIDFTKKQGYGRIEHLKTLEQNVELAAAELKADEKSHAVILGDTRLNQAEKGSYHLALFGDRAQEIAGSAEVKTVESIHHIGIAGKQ

fHbp m001118 = target: T4, fHbp m001118 (Neisseria meningitidis fHbp v3.28-based …, point mutant)
T4 chain: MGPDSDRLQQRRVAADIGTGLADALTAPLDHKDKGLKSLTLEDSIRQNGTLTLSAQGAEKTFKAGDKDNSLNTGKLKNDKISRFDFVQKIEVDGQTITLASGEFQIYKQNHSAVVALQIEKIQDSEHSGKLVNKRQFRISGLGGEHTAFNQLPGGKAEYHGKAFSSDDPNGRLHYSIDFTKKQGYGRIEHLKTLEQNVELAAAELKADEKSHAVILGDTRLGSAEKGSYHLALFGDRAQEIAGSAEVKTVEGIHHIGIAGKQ

fHbp m001688 = target: T5, fHbp m001688 (Neisseria meningitidis, engineered fHbp …, point mutant)
T5 chain: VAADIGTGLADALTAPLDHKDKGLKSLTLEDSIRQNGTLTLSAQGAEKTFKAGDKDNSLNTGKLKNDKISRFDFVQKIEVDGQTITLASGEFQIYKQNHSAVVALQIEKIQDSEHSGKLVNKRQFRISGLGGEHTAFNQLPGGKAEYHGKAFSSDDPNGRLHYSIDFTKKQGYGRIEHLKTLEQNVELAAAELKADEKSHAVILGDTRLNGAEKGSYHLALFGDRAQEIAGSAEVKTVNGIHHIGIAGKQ

fHbp m001690 = target: T6, fHbp m001690 (Neisseria meningitidis, engineered fHbp …, point mutant)
T6 chain: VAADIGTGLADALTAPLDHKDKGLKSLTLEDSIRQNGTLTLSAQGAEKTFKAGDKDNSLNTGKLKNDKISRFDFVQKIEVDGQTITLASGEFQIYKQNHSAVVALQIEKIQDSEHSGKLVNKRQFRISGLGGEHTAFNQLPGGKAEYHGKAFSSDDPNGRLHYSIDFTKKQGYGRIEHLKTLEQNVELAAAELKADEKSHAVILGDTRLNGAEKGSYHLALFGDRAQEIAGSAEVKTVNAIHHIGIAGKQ

fHbp m001037 = target: T7, fHbp m001037 (Neisseria meningitidis fHbp v3.28, …, point mutant)
T7 chain: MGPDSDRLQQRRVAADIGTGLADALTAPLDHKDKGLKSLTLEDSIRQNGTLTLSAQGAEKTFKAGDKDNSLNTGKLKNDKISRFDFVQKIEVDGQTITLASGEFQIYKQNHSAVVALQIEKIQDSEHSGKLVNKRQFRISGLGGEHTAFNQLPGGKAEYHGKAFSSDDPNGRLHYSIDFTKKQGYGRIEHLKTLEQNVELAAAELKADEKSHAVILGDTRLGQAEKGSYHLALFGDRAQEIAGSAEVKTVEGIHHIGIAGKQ

fHbp m001621 = target: T8, fHbp m001621 (Neisseria meningitidis, fHbp …, point mutant)
T8 chain: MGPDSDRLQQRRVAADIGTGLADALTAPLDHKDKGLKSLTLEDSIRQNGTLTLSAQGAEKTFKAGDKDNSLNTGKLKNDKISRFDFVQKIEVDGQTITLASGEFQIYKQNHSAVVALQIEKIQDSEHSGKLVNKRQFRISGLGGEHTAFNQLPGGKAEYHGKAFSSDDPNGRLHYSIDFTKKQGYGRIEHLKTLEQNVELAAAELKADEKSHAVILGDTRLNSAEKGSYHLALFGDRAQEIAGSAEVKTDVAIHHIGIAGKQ

fHbp m001207 = target: T9, fHbp m001207 (Neisseria meningitidis fHbp v3.28-based …, point mutant)
T9 chain: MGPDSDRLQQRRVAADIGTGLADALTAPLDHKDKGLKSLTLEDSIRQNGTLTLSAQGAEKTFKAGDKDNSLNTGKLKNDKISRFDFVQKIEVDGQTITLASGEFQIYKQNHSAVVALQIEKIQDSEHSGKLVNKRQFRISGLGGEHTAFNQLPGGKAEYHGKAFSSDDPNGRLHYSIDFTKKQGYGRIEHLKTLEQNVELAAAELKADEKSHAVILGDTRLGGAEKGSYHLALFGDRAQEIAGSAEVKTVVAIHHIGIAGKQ

Binder	Kd (fHbp mutant 0024) [nM]	koff (fHbp mutant 0024) [s⁻¹]	kon (fHbp mutant 0024) [M⁻¹ s⁻¹]	Kd (fHbp m002417) [nM]	koff (fHbp m002417) [s⁻¹]	kon (fHbp m002417) [M⁻¹ s⁻¹]	Kd (fHbp m001524) [nM]	koff (fHbp m001524) [s⁻¹]	kon (fHbp m001524) [M⁻¹ s⁻¹]	Kd (fHbp m001118) [nM]	koff (fHbp m001118) [s⁻¹]	kon (fHbp m001118) [M⁻¹ s⁻¹]	Kd (fHbp m001688) [nM]	koff (fHbp m001688) [s⁻¹]	kon (fHbp m001688) [M⁻¹ s⁻¹]	Kd (fHbp m001690) [nM]	koff (fHbp m001690) [s⁻¹]	kon (fHbp m001690) [M⁻¹ s⁻¹]	Kd (fHbp m001037) [nM]	koff (fHbp m001037) [s⁻¹]	other results
mAb 4B3 (human) (antibody, V domains shown, also called 4B3-2; source: Expi293, purified (MabSelect SuRe, SEC); copies: 2 + 2) VH: QVQLVQSGGGLVKPGGSLRLSCAASGFPFSSYYMSWIRQAPGKGLEWVSDINNSGNVKEYADFVKGRLTISRDNVKNSMYLHMNSLRVEDTAVYYCARNRGRFDVWGQGTLVTVSA VL: EIVMTQSPGTLSLSPGETATLSCRASQMISSPFLAWYQQRRGQAPRLLIYGASTRATDTPDRFRGSGSGTDFILTISRLEPEDFAVYYCQYYDDSPFTFGQGTKLEIK	1.48	0.000969	655000 ± 3130																		
mAb 1E6 (human) (antibody, V domains shown, source: Expi293, purified (MabSelect SuRe, SEC); copies: 2 + 2) VH: EVQLVQSGAEVKKPGSSVKVSCKASGGTVIDYPITWVRQAPGQGLEWVGGFVPLFRTSNYGQKFQGRVTITADKSTSTASMELNSLTSEDTAIYYCARGDTAMGPFDYWGQGTLVTVSS VL: SYVLTQPPSLSVAPGKTATLTCGGNNIAGKTVHWYQQRPGQAPVLVISYDSDRPSGIPERFSGSNSANTATLTISRVEAGDEADYYCQVWDRNSDHWVFGGGTKLTVL	0.369	0.000271	734700 ± 2210	0.502	0.000179	356800 ± 1380	0.742	0.000167	224700 ± 1680	0.235	8.5e-05	361600 ± 2210	0.937	0.000258	275900 ± 1570	0.678	0.000298	438900 ± 1790	0.349	0.000144	kon (fHbp m001037): 413700 ± 3870 M⁻¹ s⁻¹; Kd (fHbp m001621): 0.464 nM; koff (fHbp m001621): 0.000174 s⁻¹; kon (fHbp m001621): 375400 ± 1900 M⁻¹ s⁻¹; Kd (fHbp m001207): 0.336 nM; koff (fHbp m001207): 0.000155 s⁻¹; kon (fHbp m001207): 459700 ± 4080 M⁻¹ s⁻¹
chimeric antibody h12C1 (antibody, V domains shown, also called humanized 12C1; source: Expi293, purified (MabSelect SuRe, SEC); copies: 2 + 2) VH: QVQLQESGPELVKPGASVKISCKASGYSFSDYNMSWVKQSNGKSLEWIGIIDPKYGTINYNQKFKGKATLTVDQASSTAYMQLNSLTSEDSAVYYCVRDYYGSSYFDYWGQGTTLTVSS VL: DIVLTQSPSSIYASLGERVTLTCKASQDIHNYLNWFQQKPGKSPKTLIYRANRLVDGVPSRFSGGGSGQDYSLTISSLEFEDIGIYYCLQYDEFPPTFGGGTRLEIK				95.7	0.00962	101000 ± 1890	0.701	0.000117	167000 ± 1950	42	0.0103	245000 ± 3100	53.8	0.0106	197000 ± 3980	0.525	0.000185	351700 ± 1560	0.893	0.000269	kon (fHbp m001037): 300900 ± 2650 M⁻¹ s⁻¹; Kd (fHbp m001621): 54 nM; koff (fHbp m001621): 0.0115 s⁻¹; kon (fHbp m001621): 214000 ± 5580 M⁻¹ s⁻¹; Kd (fHbp m001207): 80.8 nM; koff (fHbp m001207): 0.014 s⁻¹; kon (fHbp m001207): 174000 ± 4810 M⁻¹ s⁻¹
